± gives the uncertainty stated by the source.
Experiment: self-splicing fitness, log relative to wild type (ln ratio); higher = more splicing; Tetrahymena group I intron in knt gene, E. coli kanamycin selection, DiMSum; sequences stand for … in CUCUCU…GGAGGGAAAAGUUAUCAGGCAUGCACCUGGUAGCUAGUCUUUAAACCAAUAGAUUGCAUCGGUUUAAAAGGCAAGACCGUCAAAUUGCGGGAAAGGGGUCAACAGCCGUUCAGUACCAAGUCUCAGGGGAAACUUUGAGAUGGCCUUGCAAAGGGUAUGGUAAUAAGCUGACGGACAUGGUCCUAACCACGCAGCCAAGUCCUAAGUCAACAGAUCUUCUGUUGAUAUGGAUGCAGUUCACAGACUAAAUGUCGGUCGGGGAAGAUGUAUUCUUCUCAUAAGAUAUAGUCGGACCUCUCCUUAAUGGGAGCUAGCGGAUGAAGUGAUGCAACACUGGAGCCGCUGGGAACUAAUUUGUAUGCGAAAGUAUAUUGAUUAGUUUUGGAGUACUCGUGGUCG
Summary of the method: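 A randomised library covering all eight P1ex-region intron nucleotides was built with the intron in the knt kanamycin-resistance gene on pET-22b(+) and held in E. coli BL21(DE3). Cells were grown overnight at 37°C or 30°C on LB agar, with or without 25 μg/mL kanamycin, plus 100 μg/mL carbenicillin, 50 μM IPTG and 0.2% rhamnose, and pooled colonies were amplicon-sequenced on an Illumina HiSeq 2500. DiMSum fitness is the error-weighted combination of wild-type-normalised replicate fold changes, kanamycin versus none.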

| Sequence | self-splicing fitness (ln) (30 °C) | self-splicing fitness (ln) (37 °C) |
| --- | --- | --- |
| GGCCAGCAAUAUUACGCGUG | -1.22 ± 0.079 | -0.385 ± 0.092 |
| GGCCAGCAAUAUUACGCUUA | -0.822 ± 0.15 | 0.139 ± 0.17 |
| GGCCAGCAAUAUUACGGACU | -2.24 ± 0.1 | -1.2 ± 0.1 |
| GGCCAGCAAUAUUACGGCAA | -0.216 ± 0.082 | -0.645 ± 0.087 |
| GGCCAGCAAUAUUACGGCAC | -1.58 ± 0.15 | -1.41 ± 0.19 |
| GGCCAGCAAUAUUACGGCAU | -1.13 ± 0.056 | -0.688 ± 0.066 |
| GGCCAGCAAUAUUACGGCCC | -2.83 ± 0.42 | – |
| GGCCAGCAAUAUUACGGCCU | -3.58 ± 0.23 | -2.42 ± 0.27 |
| GGCCAGCAAUAUUACGGCGC | -1.79 ± 0.21 | -1.57 ± 0.34 |
| GGCCAGCAAUAUUACGGUGA | -0.376 ± 0.057 | 0.327 ± 0.076 |
| GGCCAGCAAUAUUACGGUGC | -2.91 ± 0.12 | -2.01 ± 0.11 |
| GGCCAGCAAUAUUACGGUUA | 0.0773 ± 0.069 | -0.541 ± 0.067 |
| GGCCAGCAAUAUUACGUAAC | -1.22 ± 0.082 | -1.19 ± 0.073 |
| GGCCAGCAAUAUUACGUAGC | -2.24 ± 0.16 | 0.278 ± 0.16 |
| GGCCAGCAAUAUUACGUAUG | -4.17 ± 0.31 | -2.85 ± 0.26 |
| GGCCAGCAAUAUUACGUCAG | -1.91 ± 0.13 | -2.98 ± 0.33 |
| GGCCAGCAAUAUUACGUCGU | -1.18 ± 0.061 | -0.452 ± 0.072 |
| GGCCAGCAAUAUUACGUGUC | -3.2 ± 0.17 | -1.41 ± 0.12 |
| GGCGAGCAAUAUUACGAAAU | -2.66 ± 0.25 | -0.868 ± 0.19 |
| GGCGAGCAAUAUUACGAACC | -2.56 ± 0.071 | -1.11 ± 0.085 |
| GGCGAGCAAUAUUACGAAGA | – | -1.49 ± 0.47 |
| GGCGAGCAAUAUUACGACAG | -3.57 ± 0.32 | – |
| GGCGAGCAAUAUUACGACCA | -2.38 ± 0.39 | -1.05 ± 0.42 |
| GGCGAGCAAUAUUACGAGUC | -1.61 ± 0.36 | – |
| GGCGAGCAAUAUUACGAUCA | -1.18 ± 0.17 | -0.735 ± 0.18 |

| Sequence | self-splicing fitness (ln) (30 °C) | self-splicing fitness (ln) (37 °C) |
| --- | --- | --- |
| GGCGAGCAAUAUUACGAUUG | -2.49 ± 0.13 | -2.05 ± 0.2 |
| GGCGAGCAAUAUUACGCACG | -2.49 ± 0.28 | -2.71 ± 0.36 |
| GGCGAGCAAUAUUACGGACA | -0.299 ± 0.23 | -0.824 ± 0.28 |
| GGCGAGCAAUAUUACGGACC | – | -0.87 ± 0.4 |
| GGCGAGCAAUAUUACGGACG | -0.223 ± 0.1 | -0.489 ± 0.21 |
| GGCGAGCAAUAUUACGGAGC | – | -2.17 ± 0.37 |
| GGCGAGCAAUAUUACGGCCC | 0.209 ± 0.31 | – |
| GGCGAGCAAUAUUACGGGGU | -3.47 ± 0.25 | – |
| GGCGAGCAAUAUUACGGGUA | -3.42 ± 0.26 | -2.79 ± 0.2 |
| GGCGAGCAAUAUUACGGUAU | -2.08 ± 0.13 | -1.04 ± 0.17 |
| GGCGAGCAAUAUUACGGUUA | -1.07 ± 0.11 | 0.0284 ± 0.088 |
| GGCGAGCAAUAUUACGUAUC | -1.61 ± 0.14 | -0.00113 ± 0.13 |
| GGCGAGCAAUAUUACGUCCG | -3.67 ± 0.35 | -2.39 ± 0.32 |
| GGCGAGCAAUAUUACGUUGA | -1.56 ± 0.13 | -2.18 ± 0.15 |
| GGCGAGCAAUAUUACGUUUU | -1.35 ± 0.094 | -1.35 ± 0.14 |
| GGCUAGCAAUAUUACGAACA | -1.01 ± 0.15 | -0.682 ± 0.15 |
| GGCUAGCAAUAUUACGAGAU | -3.58 ± 0.21 | -1.34 ± 0.14 |
| GGCUAGCAAUAUUACGAGGU | -3.02 ± 0.42 | -1.07 ± 0.18 |
| GGCUAGCAAUAUUACGAUAA | -1.28 ± 0.17 | -1.75 ± 0.16 |
| GGCUAGCAAUAUUACGAUGC | -1.03 ± 0.15 | -0.519 ± 0.28 |
| GGCUAGCAAUAUUACGCCAA | -2 ± 0.11 | -0.903 ± 0.16 |
| GGCUAGCAAUAUUACGCGCA | 0.157 ± 0.096 | -0.145 ± 0.13 |
| GGCUAGCAAUAUUACGCGCC | -3.69 ± 0.34 | -2.17 ± 0.38 |
| GGCUAGCAAUAUUACGCGUU | -0.656 ± 0.066 | -0.29 ± 0.08 |
| GGCUAGCAAUAUUACGCUCU | -2.35 ± 0.31 | -0.975 ± 0.19 |

| Sequence | self-splicing fitness (ln) (30 °C) | self-splicing fitness (ln) (37 °C) |
| --- | --- | --- |
| GGCUAGCAAUAUUACGGAAU | -0.705 ± 0.072 | -0.0885 ± 0.1 |
| GGCUAGCAAUAUUACGGAGA | -3.65 ± 0.37 | – |
| GGCUAGCAAUAUUACGGAUA | -0.897 ± 0.13 | -0.492 ± 0.15 |
| GGCUAGCAAUAUUACGGCCA | -1.53 ± 0.21 | -0.776 ± 0.26 |
| GGCUAGCAAUAUUACGGCUU | -1.31 ± 0.17 | 0.197 ± 0.21 |
| GGCUAGCAAUAUUACGGGAC | -3.59 ± 0.3 | -0.762 ± 0.21 |
| GGCUAGCAAUAUUACGGGCG | -1.34 ± 0.095 | -0.19 ± 0.12 |
| GGCUAGCAAUAUUACGGUUA | 0.156 ± 0.084 | 0.606 ± 0.089 |
| GGCUAGCAAUAUUACGGUUC | -1.31 ± 0.056 | -0.331 ± 0.072 |
| GGCUAGCAAUAUUACGUAAC | -0.594 ± 0.083 | -0.442 ± 0.11 |
| GGCUAGCAAUAUUACGUAAG | -1.64 ± 0.068 | -0.594 ± 0.094 |
| GGCUAGCAAUAUUACGUAGC | -4.64 ± 0.42 | -2.16 ± 0.43 |
| GGCUAGCAAUAUUACGUCUG | -4.06 ± 0.31 | -2.13 ± 0.17 |
| GGCUAGCAAUAUUACGUGGC | -2.66 ± 0.28 | -1.23 ± 0.28 |
| GGCUAGCAAUAUUACGUUAA | -1.24 ± 0.091 | -0.642 ± 0.12 |
| GGGAAGCAAUAUUACGACGU | -0.169 ± 0.15 | 0.767 ± 0.17 |
| GGGAAGCAAUAUUACGAUUG | -3.59 ± 0.21 | -3.25 ± 0.3 |
| GGGAAGCAAUAUUACGCUAU | -2.75 ± 0.19 | -0.951 ± 0.14 |
| GGGAAGCAAUAUUACGGACC | -3.81 ± 0.4 | -2.35 ± 0.46 |
| GGGAAGCAAUAUUACGGACU | -1.99 ± 0.17 | -0.24 ± 0.19 |
| GGGAAGCAAUAUUACGGAUC | -0.0316 ± 0.077 | -0.684 ± 0.088 |
| GGGAAGCAAUAUUACGGCUA | -0.707 ± 0.089 | 0.0151 ± 0.12 |
| GGGAAGCAAUAUUACGGGAG | -3.28 ± 0.32 | -2.09 ± 0.27 |
| GGGAAGCAAUAUUACGGGGG | -4.18 ± 0.35 | -3.18 ± 0.32 |
| GGGAAGCAAUAUUACGGGUU | -3.15 ± 0.21 | -1.36 ± 0.15 |

| Sequence | self-splicing fitness (ln) (30 °C) | self-splicing fitness (ln) (37 °C) |
| --- | --- | --- |
| GGGAAGCAAUAUUACGGUCG | 0.00025 ± 0.1 | -0.403 ± 0.14 |
| GGGAAGCAAUAUUACGGUGA | -1.76 ± 0.3 | -0.447 ± 0.18 |
| GGGAAGCAAUAUUACGGUUA | -1.27 ± 0.11 | -0.726 ± 0.1 |
| GGGAAGCAAUAUUACGUAAU | -1.88 ± 0.14 | -0.632 ± 0.22 |
| GGGAAGCAAUAUUACGUACA | -1.02 ± 0.14 | -0.334 ± 0.24 |
| GGGAAGCAAUAUUACGUAUA | -2.79 ± 0.15 | -0.738 ± 0.094 |
| GGGAAGCAAUAUUACGUCAC | -3.08 ± 0.2 | -1.77 ± 0.19 |
| GGGAAGCAAUAUUACGUGGA | -2 ± 0.17 | -2.34 ± 0.29 |
| GGGAAGCAAUAUUACGUGGU | -4.31 ± 0.27 | -3.33 ± 0.47 |
| GGGCAGCAAUAUUACGAAAC | -0.715 ± 0.3 | -0.594 ± 0.28 |
| GGGCAGCAAUAUUACGAACU | -0.431 ± 0.065 | -0.278 ± 0.09 |
| GGGCAGCAAUAUUACGACCA | -0.297 ± 0.28 | 0.951 ± 0.41 |
| GGGCAGCAAUAUUACGAGAA | -3.05 ± 0.47 | -1.87 ± 0.3 |
| GGGCAGCAAUAUUACGAGCG | -0.755 ± 0.1 | 0.344 ± 0.12 |
| GGGCAGCAAUAUUACGAGCU | -2.69 ± 0.22 | 0.481 ± 0.13 |
| GGGCAGCAAUAUUACGAUGA | -1.36 ± 0.12 | -0.649 ± 0.11 |
| GGGCAGCAAUAUUACGCAUA | -1 ± 0.092 | 0.38 ± 0.13 |
| GGGCAGCAAUAUUACGCCGC | -3.33 ± 0.22 | -2.27 ± 0.31 |
| GGGCAGCAAUAUUACGCUAG | -1.86 ± 0.078 | -0.741 ± 0.11 |
| GGGCAGCAAUAUUACGGAGA | -4.44 ± 0.46 | -2.56 ± 0.22 |
| GGGCAGCAAUAUUACGGAUU | -0.98 ± 0.12 | -0.0797 ± 0.1 |
| GGGCAGCAAUAUUACGGCGC | -0.77 ± 0.11 | 0.0143 ± 0.14 |
| GGGCAGCAAUAUUACGGGGA | -2.97 ± 0.21 | -1.56 ± 0.17 |

— the supplement of paper PMC7877785
